Measurements: US9074238B2, “Methods for enhancing neprilysin activity and degrading amyloid-beta peptides and oligomers in a subject with Alzheimer's disease” (ACADEMIA SINICA, priority 2011, dated 2015)
“Also recorded” adds a separate entry of the source. Primed or numbered codes have the meaning given here. *: point of attachment. Alexa‑350 = fluorescent label on the Cys side chain (double-labeled qf-Aβ(1-7)C); Dabcyl′ = CN(C)c1ccc(/N=N/c2ccc(C(=O)*)cc2)cc1

How the values were obtained:
NEP = experiment: Screening of compounds for NEP activity of SH-SY5Y cells with qf-Aβ(1-7)C substrate; type: cell-based, human; conditions: 5 μM compound, 24 hr; 2 μM qf-Aβ(1-7)C, 1 h
Procedure: The compound number is indicated on the left of each bar. […] (**, p value<0.001; *, p value<0.01).
Analogs comprising at least three hydroxyl groups attached to the two aromatic rings of the curcumin structure scaffold (Compound 1) were particularly active in enhancing NEP activity.
Human SH-SY5Y cells were cultured in the Dulbecco's modified Eagle's medium (DMEM, Gibco, USA) supplemented with 10% fetal bovine serum (FBS; Biological industries, USA) in 5% CO2 at 37° C. The cells were harvested and re-suspended in the phenol red-free DMEM medium supplemented with 10% FBS at a density of 1×10^6 cells/mL. 100 μL of cell culture was added in each well of a 96-well plate. The compounds (no. 1 to no. 24) were dissolved in DMSO, and the others (no. 25 and no. 26) were dissolved in sterilized water to make the stock solution (1 mM). Each compound was mixed with phenol red-free DMEM supplemented with 10% FBS to a final concentration of 10 μM. 100 μL of the medium containing 10 μM indicated compound was added into the wells to make the final compound concentration 5 μM. After incubation for 24 hr, the medium of the culture was replaced with the phenol red-free DMEM medium (not FBS) containing 2 μM qf-Aβ(1-7)C and incubation continued for additional 1 h. To measure the proteolytic activity, 100 μL of the medium was taken out for fluorescence measurement on SpectraMax Gemini EM (Molecular Devices, USA) with excitation at 346 nm and emission at 442 nm. The average of three replicate wells was used for each sample and control.

[1] = molecular target: T1, angiotensin-converting enzyme (ACE) (Homo sapiens, UniProt P12821); experiment: Fluorogenic enzyme assay, peptide substrate digested by ACE; type: biochemical; conditions: 2 μM substrate
T1 construct: purchased R&D Systems (USA)
Procedure: (§1) Recombinant human NEP (0.5 mg/mL), insulin-degrading enzyme (IDE) (0.386 mg/mL), endothelin-converting enzyme 1 (ECE-1) (0.298 mg/mL), matrix metalloproteinases (MMP)-3 (0.124 mg/mL) and MMP-9 (0.5 mg/mL), and angiotensin-converting enzyme (ACE) (0.434 mg/mL) were purchased from R&D Systems (USA). Human plasmin (1 mM) was purchased from Sigma (USA). […] MMP-3 and MMP-9 were pre-activated by incubation at 37° C. for 24 h with 1 mM p-aminophenylmercuric acetate. The quenched fluorogenic peptide substrate qf-Aβ(1-7)C (0.4 μL of the 1 mM stock in DMSO) was mixed with different concentrations of enzyme solution (final peptide concentration 2 μM) on a 96-well plate. The final volume of the reaction solution was kept as 200 μL. The mixture was incubated in the dark for 1, 2, 3, or 4 h at 37° C., and then the fluorescence was measured with excitation at 360 nm and emission at 465 nm on a Paradigm™ Detection Platform (Beckman Coulter, USA) (FIG. 5).
One commercially available quenched fluorogenic peptide substrate, Dansyl-^DAGF(pNO2)G, was tested for comparison. The fluorescence of dansyl is quenched by the presence of nitrophenyl group. Digestion was monitored by the fluorescence increase of dansyl at 562 nm when excited at 342 nm. […] This substrate also has enzyme specificity. It is sensitive to NEP and ACE (FIG. 8B). […]

Human plasmin = molecular target: T2, Human plasmin (Homo sapiens, UniProt P00747); experiment: Fluorogenic enzyme assay, peptide substrate digested by plasmin; type: biochemical; conditions: 2 μM substrate
T2 construct: Human plasmin (1 mM) was purchased from Sigma (USA); purchased Sigma (USA)
Procedure: as §1

[2] = molecular target: T3, endothelin-converting enzyme 1 (ECE-1) (Homo sapiens, UniProt P42892); experiment: Fluorogenic enzyme assay, peptide substrate digested by ECE-1; type: biochemical; conditions: 2 μM substrate, pH 7.5, 37° C.
T3 construct: purchased R&D Systems (USA)
T3 sequence (P42892 1-770): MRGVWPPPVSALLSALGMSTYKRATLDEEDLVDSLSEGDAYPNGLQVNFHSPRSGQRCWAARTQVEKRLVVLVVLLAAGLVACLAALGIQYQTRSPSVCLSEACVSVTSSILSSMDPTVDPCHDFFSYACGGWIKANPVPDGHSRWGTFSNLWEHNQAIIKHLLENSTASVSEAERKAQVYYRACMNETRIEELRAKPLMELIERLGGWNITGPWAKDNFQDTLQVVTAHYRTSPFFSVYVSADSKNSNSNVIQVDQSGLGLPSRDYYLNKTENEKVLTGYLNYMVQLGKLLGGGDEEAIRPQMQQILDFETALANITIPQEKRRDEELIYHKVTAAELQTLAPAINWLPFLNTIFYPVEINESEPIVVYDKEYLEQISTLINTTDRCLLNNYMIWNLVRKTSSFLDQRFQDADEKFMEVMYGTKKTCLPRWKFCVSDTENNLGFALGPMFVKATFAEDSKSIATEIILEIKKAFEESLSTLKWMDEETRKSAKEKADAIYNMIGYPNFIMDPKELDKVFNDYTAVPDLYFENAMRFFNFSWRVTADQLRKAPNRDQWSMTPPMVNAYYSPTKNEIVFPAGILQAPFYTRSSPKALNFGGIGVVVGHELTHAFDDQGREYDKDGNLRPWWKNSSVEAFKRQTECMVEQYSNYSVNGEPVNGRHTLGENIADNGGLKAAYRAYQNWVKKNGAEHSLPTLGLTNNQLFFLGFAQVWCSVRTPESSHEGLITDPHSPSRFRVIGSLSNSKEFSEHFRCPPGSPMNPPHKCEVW
Procedure: as §1

MMP-9 = molecular target: T4, MMP-9 (Homo sapiens, UniProt P14780); experiment: Fluorogenic enzyme assay, peptide substrate digested by MMP-9; type: biochemical; conditions: 2 μM substrate, pH 7.5, 37° C.
T4 construct: purchased R&D Systems (USA)
Procedure: as §1

MMP-3 = molecular target: T5, MMP-3 (Homo sapiens, UniProt P08254); experiment: Fluorogenic enzyme assay, peptide substrate digested by MMP-3; type: biochemical; conditions: 2 μM substrate
T5 construct: purchased R&D Systems (USA)
Procedure: as §1

[3] = molecular target: T6, insulin-degrading enzyme (IDE) (Homo sapiens, UniProt P14735); experiment: Fluorogenic enzyme assay, peptide substrate digested by IDE; type: biochemical
T6 construct: purchased R&D Systems (USA)
Procedure: as §1
The assay system was sensitive enough to detect as low as 0.10 nM NEP. […]
(§2) One commercially available quenched fluorogenic peptide substrate, Dansyl-^DAGF(pNO2)G, was tested for comparison. The fluorescence of dansyl is quenched by the presence of nitrophenyl group. Digestion was monitored by the fluorescence increase of dansyl at 562 nm when excited at 342 nm. […]

recombinant human NEP = molecular target: T7, recombinant human NEP (Homo sapiens, UniProt P08473); experiment: Fluorogenic enzyme assay, peptide substrate digested by NEP; type: biochemical
T7 construct: purchased R&D Systems (USA)
Procedure: To determine the optimal reaction conditions, 0.92 nM NEP was mixed with different concentrations of qf-Aβ(1-7)C, then, after incubation for 1, 2, 3, or 4 h at 37° C., the peptide-degrading activity of NEP was measured by recording fluorescence emission at 465 nm. The fluorescence intensity increased at least 40-fold with the degradation of the quenched fluorogenic peptide. […] Incubation for 1 h was sufficient for detection. At higher substrate concentrations, the fluorescence intensity was much larger, but the error increased. To test whether the sensitivity of NEP detection was increased when a higher substrate concentration was used, 1.84 μM qf-Aβ(1-7)C was mixed with different concentrations of NEP and reacted at 37° C. for 1, 2, 3, or 4 h and the fluorescence emission at 465 nm measured (FIG. 4). […] The substrate concentration of 1.84 μM or more was therefore used in the following studies.
To determine the optimal substrate concentration in the fluorogenic enzyme assay, NEP (0.5 mg/mL) and substrate peptide qf-Aβ(1-7)C (1 mM) were mixed in 50 mM Tris-HCl (pH 7.5), 25 mM NaCl, 5 μM ZnCl2 to a final NEP concentration of 0.92 nM and peptide concentrations of 0.46, 0.92, 1.84, 3.68, or 7.36 μM and placed on a 96-well plate (Corning, USA). The final volume of the reaction solution was kept as 200 μL. The enzyme reaction was performed in the dark at 37° C. and the fluorescence was measured at 1, 2, 3, and 4 h with excitation at 360 nm and emission at 465 nm on a Paradigm™ Detection Platform (Beckman Coulter, USA) (FIG. 3). […] The enzyme reaction was performed in the dark at 37° C. and the fluorescence was measured at 1, 2, 3, and 4 h. […]
as §2

T7 sequence (P08473 whole entry): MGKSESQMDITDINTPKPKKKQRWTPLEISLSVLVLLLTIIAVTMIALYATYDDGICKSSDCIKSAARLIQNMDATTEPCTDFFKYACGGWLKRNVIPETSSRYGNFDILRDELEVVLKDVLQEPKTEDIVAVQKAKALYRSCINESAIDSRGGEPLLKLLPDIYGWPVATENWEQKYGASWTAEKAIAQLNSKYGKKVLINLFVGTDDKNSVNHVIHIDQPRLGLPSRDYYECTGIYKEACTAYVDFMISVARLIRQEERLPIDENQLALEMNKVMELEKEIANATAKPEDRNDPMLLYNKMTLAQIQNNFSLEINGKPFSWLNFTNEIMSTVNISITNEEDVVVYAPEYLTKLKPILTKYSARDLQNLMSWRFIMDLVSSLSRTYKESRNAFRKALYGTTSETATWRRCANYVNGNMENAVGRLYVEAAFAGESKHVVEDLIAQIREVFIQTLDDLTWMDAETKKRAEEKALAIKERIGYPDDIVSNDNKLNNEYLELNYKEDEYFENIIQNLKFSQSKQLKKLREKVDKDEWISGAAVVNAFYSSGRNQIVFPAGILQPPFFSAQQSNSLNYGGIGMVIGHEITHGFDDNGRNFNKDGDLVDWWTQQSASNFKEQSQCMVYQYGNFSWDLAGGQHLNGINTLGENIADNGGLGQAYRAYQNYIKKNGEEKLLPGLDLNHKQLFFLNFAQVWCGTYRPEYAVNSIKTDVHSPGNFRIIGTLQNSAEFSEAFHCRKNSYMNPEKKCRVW
T5 sequence (P08254 100-477): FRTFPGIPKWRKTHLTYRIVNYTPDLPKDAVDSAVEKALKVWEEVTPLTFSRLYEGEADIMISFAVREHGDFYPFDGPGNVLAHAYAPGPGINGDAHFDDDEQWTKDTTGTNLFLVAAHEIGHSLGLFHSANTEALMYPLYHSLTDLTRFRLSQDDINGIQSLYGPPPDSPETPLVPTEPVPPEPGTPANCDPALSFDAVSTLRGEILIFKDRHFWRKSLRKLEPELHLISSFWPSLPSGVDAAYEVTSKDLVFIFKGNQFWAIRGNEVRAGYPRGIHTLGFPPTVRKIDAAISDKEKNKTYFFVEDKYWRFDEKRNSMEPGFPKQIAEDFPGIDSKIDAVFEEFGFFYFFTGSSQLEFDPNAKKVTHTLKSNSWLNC
T2 sequence (P00747 581-810 limits assumed): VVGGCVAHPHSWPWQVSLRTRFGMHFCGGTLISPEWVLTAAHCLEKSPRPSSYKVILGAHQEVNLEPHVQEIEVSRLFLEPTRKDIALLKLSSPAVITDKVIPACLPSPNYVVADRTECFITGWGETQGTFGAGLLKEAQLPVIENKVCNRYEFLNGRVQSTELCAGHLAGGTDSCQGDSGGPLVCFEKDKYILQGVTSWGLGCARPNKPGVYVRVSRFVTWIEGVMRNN
T2 sequence (P00747 97-580 partner limits assumed): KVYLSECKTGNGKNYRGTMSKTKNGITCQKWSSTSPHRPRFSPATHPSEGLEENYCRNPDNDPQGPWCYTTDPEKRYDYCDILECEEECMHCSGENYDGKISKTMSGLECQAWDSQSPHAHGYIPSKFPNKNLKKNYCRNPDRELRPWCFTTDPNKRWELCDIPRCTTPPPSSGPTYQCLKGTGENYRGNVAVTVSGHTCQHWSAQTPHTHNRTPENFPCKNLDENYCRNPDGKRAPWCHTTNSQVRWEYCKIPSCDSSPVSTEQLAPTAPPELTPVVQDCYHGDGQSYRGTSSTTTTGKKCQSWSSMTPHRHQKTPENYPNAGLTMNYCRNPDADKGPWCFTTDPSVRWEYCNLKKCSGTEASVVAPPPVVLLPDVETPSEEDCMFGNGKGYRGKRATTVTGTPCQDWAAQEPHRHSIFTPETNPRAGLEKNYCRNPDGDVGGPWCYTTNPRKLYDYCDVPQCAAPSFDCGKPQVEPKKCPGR
T1 sequence (P12821 30-1306): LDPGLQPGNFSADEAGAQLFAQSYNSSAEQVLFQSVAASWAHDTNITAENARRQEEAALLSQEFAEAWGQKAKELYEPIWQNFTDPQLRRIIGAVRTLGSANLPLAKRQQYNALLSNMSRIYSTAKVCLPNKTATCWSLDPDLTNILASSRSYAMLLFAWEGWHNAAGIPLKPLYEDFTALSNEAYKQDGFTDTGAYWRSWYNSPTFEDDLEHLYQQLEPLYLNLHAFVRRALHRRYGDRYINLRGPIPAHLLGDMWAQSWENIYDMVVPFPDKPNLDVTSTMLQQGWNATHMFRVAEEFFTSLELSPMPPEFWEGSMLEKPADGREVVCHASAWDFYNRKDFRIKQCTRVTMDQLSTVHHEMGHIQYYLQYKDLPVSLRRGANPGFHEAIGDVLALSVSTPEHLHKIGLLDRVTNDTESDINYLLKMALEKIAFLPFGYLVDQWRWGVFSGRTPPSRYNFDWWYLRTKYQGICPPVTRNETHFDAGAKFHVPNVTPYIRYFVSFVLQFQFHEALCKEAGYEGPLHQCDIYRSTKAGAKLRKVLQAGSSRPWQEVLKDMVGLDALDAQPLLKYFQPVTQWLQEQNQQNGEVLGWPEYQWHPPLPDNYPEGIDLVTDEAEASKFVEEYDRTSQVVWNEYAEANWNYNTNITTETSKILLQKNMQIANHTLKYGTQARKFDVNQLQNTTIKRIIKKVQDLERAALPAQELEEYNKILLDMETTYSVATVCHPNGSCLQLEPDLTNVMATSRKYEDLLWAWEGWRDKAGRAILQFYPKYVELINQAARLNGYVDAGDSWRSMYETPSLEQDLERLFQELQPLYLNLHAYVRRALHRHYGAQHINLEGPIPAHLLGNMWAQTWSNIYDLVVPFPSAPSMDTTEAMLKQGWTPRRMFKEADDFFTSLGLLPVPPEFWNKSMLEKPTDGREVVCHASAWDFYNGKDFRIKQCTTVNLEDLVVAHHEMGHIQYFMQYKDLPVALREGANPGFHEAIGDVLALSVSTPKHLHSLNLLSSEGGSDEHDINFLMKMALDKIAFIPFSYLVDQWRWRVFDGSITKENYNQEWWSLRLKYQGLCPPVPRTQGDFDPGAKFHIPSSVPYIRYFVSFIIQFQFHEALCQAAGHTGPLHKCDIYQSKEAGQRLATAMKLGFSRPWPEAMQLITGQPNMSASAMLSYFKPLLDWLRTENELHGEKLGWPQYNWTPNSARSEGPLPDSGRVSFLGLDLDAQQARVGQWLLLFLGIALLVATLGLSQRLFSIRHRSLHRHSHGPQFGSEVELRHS
T4 sequence (P14780 107-707 limits assumed): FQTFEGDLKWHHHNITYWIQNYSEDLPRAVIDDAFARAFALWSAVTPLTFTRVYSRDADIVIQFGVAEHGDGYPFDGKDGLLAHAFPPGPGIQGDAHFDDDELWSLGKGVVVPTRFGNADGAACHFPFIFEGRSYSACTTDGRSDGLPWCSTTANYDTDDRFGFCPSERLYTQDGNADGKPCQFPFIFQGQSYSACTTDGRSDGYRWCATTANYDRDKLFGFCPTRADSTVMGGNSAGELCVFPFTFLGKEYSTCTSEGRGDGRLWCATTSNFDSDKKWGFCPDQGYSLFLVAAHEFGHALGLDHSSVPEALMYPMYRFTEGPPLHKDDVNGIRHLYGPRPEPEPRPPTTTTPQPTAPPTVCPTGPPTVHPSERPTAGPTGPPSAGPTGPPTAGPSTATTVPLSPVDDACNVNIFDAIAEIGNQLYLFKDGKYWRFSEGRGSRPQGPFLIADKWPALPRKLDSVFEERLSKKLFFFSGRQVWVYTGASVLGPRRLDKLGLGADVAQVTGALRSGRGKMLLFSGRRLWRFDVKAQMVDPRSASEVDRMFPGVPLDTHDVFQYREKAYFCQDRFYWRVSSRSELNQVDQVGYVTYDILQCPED

COc1cc(C=CC(=O)CC(=O)C=Cc2cc(O)c(O)c(OC)c2)cc(O)c1O [Compound 10, 1,7-Bis(3,4-dihydroxy-5-methoxyphenyl)-1,6-heptadiene-3,5-dione]
NEP activity of human SHSY5Y cells treated with compound (effect in words) (NEP): largely enhanced NEP activity; also recorded: large enhancements of NEP activity

O=C(C=Cc1ccc(O)cc1)CC(=O)C=Cc1ccc(O)c(O)c1 [Compound 20, 1-(3,4-dihydroxyphenyl)-7-(4-hydroxyphenyl)-1,6-heptadiene-3,5-dione]
NEP activity of human SHSY5Y cells treated with compound (effect in words) (NEP): largely enhanced NEP activity; also recorded: large enhancements of NEP activity

qf-Aβ(1-7)C: Peptide DAEFRHDC, Aβ residues 1-7 plus C-terminal Cys, with Alexa-350 on the Cys side-chain and Dabcyl quencher at the N-terminus ({Dabcyl′}-DAEFRHDC(Alexa‑350)-OH)
fluorescence increase after digestion with ACE ([1]; 1-h digestion): no significant fluorescence increase
fluorescence increase after incubation with ACE ([1]; 3 h): very weak fluorescence increase
fluorescence increase after digestion with plasmin (Human plasmin; 1-h digestion): no significant fluorescence increase
sensitivity of the system to plasmin (Human plasmin; pH 7.5, 37° C.): much less sensitive
sensitivity of the system to ECE-1 [2]: insensitive; also recorded: much less sensitive
sensitivity of the system to MMP-9 (MMP-9): insensitive; also recorded: much less sensitive
fluorescence increase after digestion with MMP-3 (MMP-3; 1-h digestion): no significant fluorescence increase
fluorescence increase after incubation with MMP-3 (MMP-3; 3 h): very weak fluorescence increase
cleavage of the quenched fluorogenic peptide by IDE ([3]; 2 μM substrate, pH 7.5, 37° C.): effective
lowest IDE concentration detected ([3]; 37° C., 1 h): 0.2 nM
lowest substrate concentration at which 0.92 nM NEP could be detected (recombinant human NEP; 0.92 nM NEP, 37° C.): 0.46 µM
fluorescence intensity increase with degradation of the quenched fluorogenic peptide (recombinant human NEP; 0.92 nM NEP, 37° C., emission at 465 nm): at least 40 fold
cleavage of the quenched fluorogenic peptide by NEP (recombinant human NEP; 2 μM substrate, pH 7.5, 37° C.): effective

COc1cc(C=CC(=O)CC(=O)C=Cc2ccc(O)c(O)c2)ccc1O [Compound 7, 1-(3,4-Dihydroxyphenyl)-7-(3-methoxy-4-hydroxyphenyl)-1,6-heptadiene-3,5-dione]
NEP activity of human SHSY5Y cells treated with compound (effect in words) (NEP): largely enhanced NEP activity; also recorded: large enhancements of NEP activity

O=C(C=Cc1ccc(O)c(O)c1)CC(=O)C=Cc1ccc(O)c(O)c1 [Compound 8, 1,7-Bis(3,4-dihydroxyphenyl)-1,6-heptadiene-3,5-dione]
NEP activity of human SHSY5Y cells treated with compound (effect in words) (NEP): largely enhanced NEP activity; also recorded: large enhancements of NEP activity

COc1ccc2ccccc2c1C=CC(=O)CC(=O)C=Cc1c(OC)ccc2ccccc12 [Compound 14, 1,7-Bis(2-methoxy-1-naphthyl)-1,6-heptadiene-3,5-dione]
NEP activity of human SHSY5Y cells treated with compound (effect in words) (NEP): decreased NEP activity
decrease of NEP activity (NEP): ~20%
